According to patent US20170096460:

Assays:
[1] = tested on: ZFP 45643 (synthetic); assay: cell_activity; details: AAV9 in mouse striatum, 5 weeks, qRT-PCR; 70% at 12 weeks
[2] = tested on: ZFP 46025 (synthetic); assay: cell_activity; details: AAV9 in mouse striatum, 5 weeks, qRT-PCR

mutant Htt allele expanded CAG repeat (Q50, 48 CAGs)
activity [1]: 79 % repression | activity [2]: 74 % repression
